In US20210079343, “ENDOTHELIAL CELL FACTORS AND METHODS THEREOF” (THE CHILDREN'S MEDICAL CENTER CORPORATION, published 2021):
Numbering of substitutions follows the chain as printed.

T1: NR2F2 (COUP-TFII) (Mus musculus, UniProt P43135 P43135:1-414)
T1 sequence: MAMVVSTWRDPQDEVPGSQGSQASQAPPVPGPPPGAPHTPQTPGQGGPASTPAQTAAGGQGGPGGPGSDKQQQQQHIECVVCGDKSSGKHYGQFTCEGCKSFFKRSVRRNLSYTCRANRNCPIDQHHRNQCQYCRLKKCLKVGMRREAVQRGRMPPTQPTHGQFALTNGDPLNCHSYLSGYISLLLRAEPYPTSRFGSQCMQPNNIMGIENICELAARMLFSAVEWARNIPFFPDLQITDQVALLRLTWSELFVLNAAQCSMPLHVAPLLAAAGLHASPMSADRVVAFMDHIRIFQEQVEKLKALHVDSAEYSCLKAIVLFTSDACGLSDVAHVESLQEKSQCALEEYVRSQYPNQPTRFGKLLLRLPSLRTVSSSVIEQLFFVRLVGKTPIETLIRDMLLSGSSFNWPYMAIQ

B1: mrc1a site 2 wild-type (dsDNA)
DNA 1: TTCATTTCCTTTTTGCTGAGCTTTATTTTC
DNA 2: GAAAATAAAGCTCAGCAAAAAGGAAATGAA
B2: mrc1a site 1 wild-type (dsDNA)
DNA 1: TTTATGAAGCTTGTACCTTTCATTTCCTTTTTG
DNA 2: CAAAAAGGAAATGAAAGGTACAAGCTTCATAAA
B3: mrc1a site 1 mutation (dsDNA)
DNA 1: TTTAATTAGCAGATTTAATTTCATTTCCTTTTTG
DNA 2: CAAAAAGGAAATGAAATTAAATCTGCTAATTAAA
B4: mrc1a site 2 mutation (dsDNA)
DNA 1: TTCATTTCCTTTTTGCATTAATTTATTTTC
DNA 2: GAAAATAAATTAATGCAAAAAGGAAATGAA
B5: sele wild-type (dsDNA)
DNA 1: GTAATGCCCCCTGTGACCCATATTGTCTCGCTCTTTCCTTTATA
DNA 2: TATAAAGGAAAGAGCGAGACAATATGGGTCACAGGGGGCATTAC
B6: sele mutation (dsDNA)
DNA 1: B5 DNA 1 with T14A, G15T, A16T, C17A, C18A
DNA 2: B5 DNA 2 with G27T, G28T, T29A, C30A, A31T

Columns and labels:
NR2F2 (COUP-TFII) [1] = biological target: T1, NR2F2 (COUP-TFII); test: EMSA; 4 C, 20 mM Tris pH 8.0, 10 mM KCl, 20% glycerol; super-shifted by anti-NR2F2; outcompeted by unlabeled wild-type probe; conditions: tags: GST (pGEX2TK, E. coli BL21)
Excerpt: (§1) In each case, disruption of the Ets, SoxF or NHR motifs led to a significant reduction or complete loss of GFP expression in CHT ECs (see e.g., FIG. 3F). In control constructs where mutations were targeted to intervening sequences between the Ets, SoxF and NHR motifs, GFP expression was unperturbed (see e.g., FIG. 3F). Studies of arterial-venous specification in zebrafish have shown that the NHR Nr2f2, also known as COUP-TFII, promotes venous endothelial cell fate (see e.g., Aranguren et al. Transcription factor COUP-TFII is indispensable for venous and lymphatic development in zebrafish and Xenopus laevis. Biochemical and biophysical research communications 410, 121-126, 2011). To test whether Nr2f2 could directly bind the enhancer sequences, an in vitro gel electrophoretic mobility shift assay was performed. Incubation of murine NR2F2-GST protein with labeled probe from either the 125 bp mrc1a or 158 bp sele zebrafish enhancers led to DNA:protein complexes that were super-shifted upon addition of an NR2F2 antibody and could be outcompeted by an unlabeled competitor probe (see e.g., FIG. 10A-FIG. 10E).
(§2) The Nr2f2 fragment was cloned into the pGEX2TK™ vector to generate GST-tagged Nr2f2 and fidelity was verified by sequencing. The pGEX2TK-Nr2f2 protein plasmid was transformed into E. coli BL21 competent cells. Proteins were expressed and purified, and purified proteins were quantified against BSA. EMSAs were performed. Probes were generated by annealing 100 pmol of sense and antisense oligonucleotides, and 1-2 pmol of probe was used in each reaction. Gel shift reactions were conducted at 4° C. in 20% glycerol, 20 mM Tris (pH 8.0), 10 mM KCl, 1 mM DTT, 12.5 ng poly dI/C, 6.25 pmol of random, single-stranded oligonucleotides, BSA and the probe in the amount specified above. Samples involving the Nr2f2 protein were loaded on a 6% gel to resolve protein-DNA complexes. In reactions with cold competitors, 20x unlabeled probes were included in the reactions. Anti-NR2F2 antibody (R&D Biosystems™; cat # PP-H7147-00) was at the same amount of the Nr2f2 protein to obtain super-shifts.

NR2F2 (COUP-TFII) [2] = biological target: T1, NR2F2 (COUP-TFII); test: competition; 20x unlabeled mutant unable to outcompete wild-type probe in EMSA; conditions: tags: GST (pGEX2TK, E. coli BL21)
Excerpt: as §1, §2

Binder	binding result (NR2F2 (COUP-TFII) [1])	binding result (NR2F2 (COUP-TFII) [2])
B1	binds	–
B2	binds	–
B3	–	no binding
B4	–	no binding
B5	binds	–
B6	–	no binding
